Article doi:10.1101/212837 (bioRxiv, 2017)

Target: human acid α-glucosidase (GAA), 123-200 fragment of the protease-treated enzyme (human, UniProt P10253 123-200)
Test: crystal structure

binding result: binds
B1: human acid α-glucosidase (GAA), 80-115 fragment of the protease-treated enzyme (domain or fragment)
chain: not shown
